± gives the standard deviation of the averaged measurements.
B1: library; a variant is named by its letters at N, in order (parent)
chain: GCUGUCACCGGUGUAUUACCCUAGUGGUCGACCGGUCUGAUGAGUCUNNNNNNAGACGAAACAGC

Key:
hypoxanthine [1] = variants of: B1; experiment: FACS-Seq fitted mean relative fluorescence mCherry/BFP without ligand (log10 relative fluorescence); ligand: hypoxanthine (xanthine aptamer); higher = higher reporter protein expression; settings: HEK293T, ligand present: no
Method in brief: (§1)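 Fluorescence is reported as a normalized fitted mean of sorted-bin read counts. Lentivirally transduced HEK293T libraries (mCherry ribozyme-switch reporter, EF1α-BFP marker) were enriched, treated with or without ligand for 48 h, and sorted into 6 mCherry/BFP bins for MiSeq sequencing of PCR-amplified genomic DNA. The normal fit was on log10(mCherry/BFP), scaled to five spiked-in control ribozymes.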

hypoxanthine [2] = variants of: B1; experiment: normalized RNA/DNA level with ligand (relative to sTRSVctl = 100) (log10 (% of sTRSVctl)); ligand: hypoxanthine (xanthine aptamer); higher = less ribozyme self-cleavage, higher mRNA level; settings: ligand concentration (+) RNA-Seq: 5 mM, HEK293T, reporter: mCherry (pCS4076), ligand present: yes
Method in brief: (§2)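 RNA level was computed as RNA reads over DNA reads divided by a spiked-in non-cleaving sequence or by the top sequences, then scaled and log-transformed. Scaling was ×100 with log10, the top group was 25 sequences, and the threshold was ≥100 DNA reads. The reads came from HEK293T cells transfected at 4 µg per 6-well well with ribozyme switch library plasmids (mCherry, or eGFP in some ligand experiments). Total RNA was extracted with EDTA 72 h after transfection, with any ligand added 1 h before it.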

hypoxanthine [3] = variants of: B1; experiment: normalized RNA/DNA level without ligand (relative to sTRSVctl = 100) (log10 (% of sTRSVctl)); ligand: hypoxanthine (xanthine aptamer); higher = less ribozyme self-cleavage, higher mRNA level; settings: HEK293T, reporter: mCherry (pCS4076), ligand present: no
Method in brief: as §2

hypoxanthine [4] = variants of: B1; experiment: FACS-Seq fitted mean relative fluorescence mCherry/BFP with ligand (log10 relative fluorescence); ligand: hypoxanthine (xanthine aptamer); ligand concentration (+) FACS-Seq: 5 mM; higher = higher reporter protein expression; settings: HEK293T, ligand present: yes
Method in brief: as §1

Variant | FACS-Seq fitted mean (log10) (hypoxanthine [1]) | normalized RNA/DNA level with ligand (log10) (hypoxanthine [2]) | normalized RNA/DNA level without ligand (log10) (hypoxanthine [3]) | FACS-Seq fitted mean (log10) (hypoxanthine [4])
UGUUGU | 0.254 ± 0.025 | 1.913 ± 0.0038 | 1.738 ± 0.011 | 0.57 ± 0.019
GUACAG | 0.688 ± 0.084 | 1.87 ± 0.071 | 1.45 ± 0.07 | 0.818 ± 0.08
GUACAA | -0.152 ± 0.025 | 1.91 ± 0.035 | 1.76 ± 0.064 | 0.27 ± 0.051
AUACGG | -0.0504 ± 0.059 | 1.785 ± 0.012 | 1.27 ± 0.082 | 0.547 ± 0.084
AUACGC | 0.365 ± 0.04 | 1.91 ± 0.056 | 1.72 ± 0.042 | 0.5194 ± 0.0036
CGUUGG | 0.31411 ± 0.00021 | 1.966 ± 0.0055 | 1.413 ± 0.0094 | 0.58 ± 0.022
CUAAUG | 0.65 ± 0.052 | 1.922 ± 0.018 | 1.79 ± 0.068 | 0.577 ± 0.044
CUAAUC | 0.365 ± 0.027 | 1.94 ± 0.037 | 1.9 ± 0.043 | 0.43119 ± 0.00031
AUACAG | 0.1 ± 0.018 | 1.814 ± 0.017 | 1.45 ± 0.039 | 0.561 ± 0.031
AUACAA | 0.364 ± 0.062 | 1.9 ± 0.037 | 1.76 ± 0.024 | 0.532 ± 0.013
AUACAC | 0.399 ± 0.093 | 1.915 ± 0.019 | 1.762 ± 0.0072 | 0.456 ± 0.1
UGUCUA | -0.725 ± 0.058 | 1.95 ± 0.067 | 1.92 ± 0.02 | -0.723 ± 0.08
UGUUAU | -0.225 ± 0.19 | 1.89 ± 0.0069 | 1.817 ± 0.0095 | -0.287 ± 0.069
CUAGCA | 0.139 ± 0.058 | 1.93 ± 0.038 | 1.83 ± 0.04 | 0.177 ± 0.018
AUAACA | 0.00278 ± 0.0073 | 1.9 ± 0.041 | 1.83 ± 0.031 | 0.0853 ± 0.19
UUAGAA | 0.092 ± 0.0099 | 1.89 ± 0.043 | 1.694 ± 0.0073 | 0.285 ± 0.021
GGUUGG | -0.0305 ± 0.021 | 1.83 ± 0.074 | 1.27 ± 0.014 | 0.558 ± 0.021
GGUUGC | -0.0647 ± 0.067 | 1.92 ± 0.037 | 1.52 ± 0.035 | 0.345 ± 0.043

Variant | FACS-Seq fitted mean (log10) (hypoxanthine [1]) | normalized RNA/DNA level with ligand (log10) (hypoxanthine [2]) | normalized RNA/DNA level without ligand (log10) (hypoxanthine [3]) | FACS-Seq fitted mean (log10) (hypoxanthine [4])
GUAAAC | 0.572 ± 0.053 | 1.946 ± 0.0036 | 1.74 ± 0.028 | 0.739 ± 0.055
GUAAAG | -0.0437 ± 0.028 | 1.82 ± 0.023 | 1.49 ± 0.045 | -0.15 ± 0.059
GUAAAU | 0.503 ± 0.07 | 1.88 ± 0.053 | 1.778 ± 0.011 | 0.467 ± 0.11
GUAAAA | 0.614 ± 0.066 | 1.92 ± 0.06 | 1.815 ± 0.0075 | 0.661 ± 0.033
AGUGUG | 0.0689 ± 0.056 | 1.8 ± 0.038 | 1.32 ± 0.038 | 0.489 ± 0.033
AGUGUA | -0.349 ± 0.012 | 1.9 ± 0.044 | 1.71 ± 0.035 | -0.0909 ± 0.009
CUAAAC | 0.4073 ± 0.0033 | 1.89 ± 0.025 | 1.827 ± 0.015 | 0.415 ± 0.1
AGUUGG | -0.154 ± 0.12 | 1.8 ± 0.037 | 1.338 ± 0.0021 | 0.403 ± 0.075
AGUUGC | 0.226 ± 0.043 | 1.91 ± 0.048 | 1.72 ± 0.022 | 0.382 ± 0.02
GUAAGA | 0.291 ± 0.0051 | 1.89 ± 0.0055 | 1.73 ± 0.01 | 0.214 ± 0.029
GUAAGG | 0.181 ± 0.047 | 1.87 ± 0.042 | 1.38 ± 0.015 | 0.408 ± 0.026
GUAAGC | 0.302 ± 0.007 | 1.886 ± 0.015 | 1.53 ± 0.023 | 0.667 ± 0.078
GGUGGC | 0.217 ± 0.017 | 1.89 ± 0.039 | 1.57 ± 0.025 | 0.392 ± 0.007
GGUGGA | 0.261 ± 0.029 | 1.951 ± 0.0027 | 1.71 ± 0.026 | 0.43 ± 0.028
CGUUAA | 0.0819 ± 0.044 | 1.89 ± 0.019 | 1.62 ± 0.049 | 0.118 ± 0.02
AGUGAU | 0.509 ± 0.14 | 1.91 ± 0.065 | 1.77 ± 0.047 | 0.534 ± 0.019
UUACAU | 0.352 ± 0.018 | 1.93 ± 0.051 | 1.87 ± 0.026 | 0.453 ± 0.11
UUACAC | 0.362 ± 0.025 | 1.92 ± 0.079 | 1.81 ± 0.025 | 0.444 ± 0.051

— the supplement of paper PMC6757056
